This series can be described thus: soluble on expression in E. coli; label from the status in PepcDB or PDB records.
Turning to “TSPTTTSTGTGTGSSTDQAISPLVEGENAPEVTTAKLGFIALTDAAPLIIAKEKGFYAKYGMPDVEVLKQASWGTTRDNLVLGSASGGIDGAHILTPMPYLITMGTVTDGKPTPMYILARLNVNGQGIQLGNNYKDLKVGTDAAPLKEAFAKVTDPKVAMTFPGGTHDMWIRYWLAAGGMEPGKDFSTIVVPPAQMVANVKVNAMESFCVGEPWPLQTVNQGVGYQALTTGQLWKDHPEKAFGMRADWVDQNPKAAKALLMAVMEAQQWCDQAENKEEMCQILSKREWFKVPFEDIIDRSKGIYNFGNGQETFEDQEIMQKYWVDNASYPYKSHDQWFLTENIRWGYLPASTDTKAIVDKVNREDLWREAAQALEVPADQIPSSPSRGIETFFDGITFDPENPQAYLDSLKIKSIKA”, the “soluble on expression in E. coli” value is given as “soluble”. As to “TTGSDGKATFDVTQNETYGLATPLTATLMRDTTKSATMDVIFTVITSPNSPKAKYWGHMPDTFTSRAGVTFKRPLLAAEATLGSSVSNNNESWSYLFYTNKVTPDCPVEYQPRLNELQGLYNDHPGGTILTDLGLPITAGSGNWWTYEMSTTDALTWYYGVINLKTGQSTTTINGYALMLCL”, the “soluble on expression in E. coli” value is on record as “not soluble”. The entry for “TTVNETTPIAPAKVLPDAQTVTSVRHWTDTLFSFRVTRPQTLRFRSGEFVMIGLLDDNGKPIMRAYSIASPAWDEELEFYSIKVPDGPLTSRLQHIKVGEQIILRPKPVGTLVIDALLPGKRLWFLATGTGIAPFASLMREPEAYEKFDEVIMMHACRTVAELEYGRQLVEALQEDPLIGELVEGKLKYYPTTTREEFHHMGRITDNLASGKVFEDLGIAPMNPETDRAMVCGSLAFNVDVMKVLESYGLREGANSEPREFVVEKAFVGEGI” is “soluble”.

As for “TVEDSESDMDDAKLDALMGNEGEEEEDDLAEIDTSNIITSGRRTRGKVIDYKKTAEELDKKE”, the “soluble on expression in E. coli” value was “soluble”. Next, “TVPDFSAFAVEVPALKSNDEAIDAQIDKLRERFGELKDTKRKLKTDDFAIIDIEAAIDGEKLEEATTEGMSYQVGAGDLIDGLDTALRGLKAGESAEFTTTLKAGEHEGKEAAVTVTVQQTKERKLPELDEEFVQTASEFDTVEELRESIAEQVAEQAKAEQATAIRDEVLKAALAEATFELPEGVVEDQIHAQLHQLLNQVGGDEAALNAALEAQGTSREQFDADNRKNSEEAVRTQLFLDALAEQEQPEVSQQELTDHILFTAQSYGMDPNQFITQLQQSGQIGNLFSDVRRGKALAAAICRVSVKDDEGKAVDPSEYFGEEEESAEESE”: “not soluble”; “TVPITSAKAAELPPGNYRLVVFELENFQGRRAEFSGECSNLADRGFDRVRSIIVSAGPWVAFEQSNFRGEMFILEKGEYPRWNTWSSSYRSDRLMSFRPIKMDAQEHKISLFEGANFKGNTIEIQGDDAPSLWVYGFSDRVGSVKVSSGTWVGYQYPGYRGYQYLLEPGDFRHWNEWGAFQPQMQSLRRLRDKQWHLEGSFPVLATEPPK”: “soluble”. The entry for “TWCPGCGNFAILKAFERASRRVIEEGFDIAVSSGIGCHGKISDYLSLPGFHVIHGRVPPFLTGLKLANPNLVVVGFSGDGDGLNEGVEHLVHAARRNTDITIILHNNGVFGLTTGQVTATSPRGRKSRSTPRGNPEYPLNPCHLMLVSGATFVARVFAGEQERLSEVFYNAMKHKGFSFVEVMQPCVSFNNFWEMRK” is “not soluble”; for “TWILTADSPSLLGTVDVVTRYLFEQRCYVTEHHSFDDRLAQRFFIRVEFRAGDGFDEASFRAGLAERVAPFGMRTELTAPGYRSQVAIMVSKADHCLNDLLYRQRIGQLPMDVVAVISNHPDLEPLARWHGIPYHHFPLDPNDKPAQEARVWQVLEESGAELVILARYMQVLSPELCRRLDGWAINIHHSLLPGFKGAKPYHQAYQKGVKLVGATAHYINNDLDEGPIIAQGVETVDHAHYPEDLIAKGRDIECLTLARAVGYHIERRVFLNANRTVVL” it is “not soluble”; for “VAAAPRSPEDRRAQILDVAVRLLETVPFDDLSMDQVAAEAGVSPPLLFHYFKNKQGFRNAVLEASASELQRRMTPDAALPVSGQLRAGVETFADAVIEHPTIYLAVMRMAGSGDERMRQIYRGMRRTFTRWIGASLAEFGVPTTPALEAAISGWQAFMEEIVLSWLDEPTMDRTDMIDLCERAFYHLLPAAGVDVDALDVTR” it is “soluble”.

Consider “VAWFTDEEGGRGRIEAGQLADLVVPDKDFFSCPEDDISFLVSELTMVGGRIVYAAGGFAALDDNPLPPAMPDWSPARTFKGYAAWGDPDGAGRHSLQRRAVAACGCANACGLHGHQHARAWGTALPVSDAKGFFGALGCSCWA”, for which the “soluble on expression in E. coli” value is on record as “not soluble”. Next, “VDIYASMTPAKDVGGDFYDFFQIDDERIGLVIADVSGKGVPASLFMAVSRTLLRATALRGVSSAECLTYANKLLCKESLDSMFVTVFYGIYHYKTGMMDYTNAGHNPPYLLRGGRTVECLPVASNFVVGVFDDIEFESNTLTFGIGDTLLLYTDGVTEAFNDKREQFSESNLQDILASMHESSSAKEVVTSVLQSVKTFSGDYPQSDDITLLSLQRIK”: “not soluble”; “VDLGGVRRRISLMARQHGPTAQRHVASPMTVDIARLGRRPGAMFELHDTVHSPARIGLELIAIDQGALLDLDLRVESVSEGVLVTGTVAAPTVGECARCLSPVRGRVQVALTELFAYPDSATDETTEEDEVGRVVDETIDLEQPIIDAVGLELPFSPVCRPDCPGLCPQCGVPLASEPGHRHEQIDPRWAKLVEMLGPESDTLRGER”: “not soluble”. Next, “VERAQDGLYTIDERGVIDFCNDSFAATLGYEPGKLCGTHILEVLAPGEFPKGQAAVEELLEAPDQESTTVDLTFRRKDGAERELSFNHTLTHDEAGNYNGVIGVARDVT”: “not soluble”; “VFGYVTEDGDTALHLAVIHQHEPFLDFLLGFSAGHEYLDLQNDLGQTALHLAAILGEASTVEKLYAAGAGVLVAERGGHTALHLACRVRAHTCACVLLQPRPSHPRDASDTYLTQSQDCTPDTSHAPAAVDSQPNPENEEEPRDEDWRLQLEAENYDGHTPLHVAVIHKDAEMVRLLRDAGADLNKPEPTCGRTPLHLAVEAQAASVLELLLKAGADPTARMYGGRTPLGSALLRPNPILARLLRAHGAPEPEDGGDKLSPCEEEGEDEDSDNRDEGDEYDD”: “soluble”; “VGKPKMDVDLLQVDADLKKEIFDAYYNTMKTAVMTEEKLAREVEIDKVKDTVKEVYAEKFSEHEEEAQLLKEVKQIAEDLEKDVVRELITIDKIRPDGRKLDEIRH”: “not soluble”. Next, “VGVKPVGSDPDFQPELSGAGSRLAVVKFTMRGCGPCLRIAPAFSSMSNKYPQAVFLEVDVHQCQGTAATNNISATPTFQFFRNKVRIDQYQGADAVGLEEKIKQHLE”: “soluble”; “VIIGLHNPKSPTNVGAVMRAAGCYNATQVRYNGTRYARAVKFQTDTQNSHERIGLVEMDDLTAGLDSEVKIVCVELAVGATALPHFTHPEQAIYLFGPEDGSLPQEVVDQAHYVVYVPTHGCMNLAATVNVVLYDRLAKSL”: “not soluble”; “VILIIVAYLVGILIRKRNDSRIAQLEERKQKLFDLPINEEIEEVKNLHLIGQSQTTFREWNQKWIDISTNSFADIENHIFEAENMNDNFHFFKASAEINNIESQLDLVEEDIKSIREALSRLKEQEEKNSARVKHALDLYEELQNSIEGNSDNFGSTLDEITKQLKNIESEFAEFVTLNSSGDPVEASSILDRAEEHTIALGQITEKIPAIVAKLEDDFPDQLDDLESGYRKLIEQNYHFPEKNIERHFQEIREAIRSNSSELVSLDLDRAEEKNADIQEKIDNLYSIFEREIASYKVVMRQKKILPDYLKHAKENNKKLQEELERLMLTYIFDETYEADVRSFTSDISSVETAVLPTLENFDNQVKPFSELEKIFEKSLNTLSAVENGQVEVFENLRAIEKNEAKARDELDVYIDKLHVIKRYMEKRNLPGIPESFLSVFFSTSAQIEALMDELSRGRINIDAVMRLTKTSKNAIEHLEETAYLVVQNATLTEQLLQYSNRYRSFEPAVQSSFEHALKLFEVDHDYDASLEEISYALETVEPGVTDRFVSSYEK”: “not soluble”.

Regarding “VIRIGTRGSLLATTQAATVRDALIAGGHSAELVTISTEGDRSMAPIASLGVGVFTTALREAMEAGLVDAAVHSYKDLPTAADPRFTVAAIPPRNDPRDAVVARDGLTLGELPVGSLVGTSSPRRAAQLRALGLGLEIRPLRGNLDTRLNKVSSGDLDAIVVARAGLARLGRLDDVTETLEPVQMLPAPAQGALAVECRAGDSRLVAVLAELDDADTRAAVTAERALLADLEAGCSAPVGAIAEVVESIDEDGRVFEELSLRGCVAALDGSDVIRASGIGSCGRARELGLSVAAELFELGARELMWGVRH”, the “soluble on expression in E. coli” value is listed as “not soluble”. As for “VIRPKTLGQKHYVDAIDTNTIVFGLGPAGSGKTYLAMAKAVQALQSKQVSRIILTRPAVEAGEKLGFLPGTLNEKIDPYLRPLHDALRDMVEPEVIPKLMEAGIVEVAPLAYMRGRTLNDAFVILDEAQNTTPAQMKMFLTRLGFGSKMVVTGDITQVDLPGGQKSGLRLVRHILRGVDDVHFSELTSSDVVRHQLVGHIVDAYEDYEEREARELKRKRQETRP”, the “soluble on expression in E. coli” value was “soluble”. “VKMIFIFIDGFGIGKEDASVNPLANPELPNINYILNKAGAIPTDACLDVPGLPQSATGQTTIFTGQNASKVLSRHLHGQPTITLKKMIIENNLFKELIKRGFSVTNSNVYRTPYIEKIKDPKERKYRPSVTTVMTLSCGLNLRTVEEYITGDGVYHDIIGEILKNEGYVEELITPREAAQRLYSLSRKYDFTLFEYFVTDILGHKMEMEEAVEKLKILDAFLGELLNLYNEDEDIIFITSDHGNIEDLTVNTHTFNKVPTVILGKIPENVEIEINSLTDIMPTILKIFDAKGEL”: the “soluble on expression in E. coli” value was “soluble”. On to “VKTGLYSLLGLIMRSALIDNFIESLNRSKYFHVVCSDPKPICNFIEKNLVRGATIVNAKGSFTGDNKYIILTVLSPSQAVKLRNFIKENSPGAFLLISNTSEIIGKGFHSV”, for which the “soluble on expression in E. coli” value was “not soluble”. Next, “VKVRYENDKYLIPFASLDANQRMEFDLKDPQGKVILLAGKKLTSRKIKELKENHLEWVEYPMDILLNRHLAEPVMVGKEVLLDMLTQLDKNKLEKIHDLG”: “not soluble”. Next, “VNQQQLQQLMDMGFTREHAMEALLNTSTMEQATEYLLTHP”: “soluble”. The entry for “VNSHCSHTFITDNRSPRARRGHAMSTLHKVKAYFGMAPMEDYDDEYYDDRAPSRGYARPRFDDDYGRYDGRDYDDARSDSRGDLRGEPADYPPPGYRGGYADEPRFRPREFDRAEMTRPRFGSWLRNSTRGALAMDPRRMAMMFEDGHPLSKITTLRPKDYSEARTIGERFRDGSPVIMDLVSMDNADAKRLVDFAAGLAFALRGSFDKVATKVFLLSPADVDVSPEERRRIAETGFYAYQ” is “not soluble”; for “VPLPVPDFTASPMTISVGESVQFQDQTTNNPTNWEWTFEGGQPAMSTEQNPLVSYSHPGQYDVTLKVWNASGSNTITKEKFITVNAVMPVAEFVGTPTEIEEGQTVSFQNQSTNATNYVWIFDGGTPATSEDENPTVLYSKAGQYDVTLKAISASGETVKTKEKYITVKKAPVPA” it is “not soluble”.
